Test results from PMC4909209.

Target: ubiquitin tagged Ac-AChBP (Aplysia californica acetylcholine binding protein) (Aplysia californica)
Experiment: SEC; analytical Superdex 200 10/300 calibrated with molecular weight standards; oligomerization state in solution

stoichiometry N: 5
Substance: ubiquitin tagged Ac-AChBP (Aplysia californica acetylcholine binding protein) (natural protein)
